These results are taken from patent US8691944 (RESEARCH FOUNDATION FOR THE STATE UNIVERSITY OF NEW YORK, dated 2014).

B3: EGF (ligand, UniProt P01133 971-1023, looked up)
chain: NSDSECPLSHDGYCLHDGVCMYIEALDKYACNCVVGYIGERCQYRDLKWWELR
B4: platelet-derived growth factor-BB (PDGF-BB) (ligand, UniProt P01127 82-190, looked up)
chain: SLGSLTIAEPAMIAECKTRTEVFEISRRLIDRTNANFLVWPPCVEVQRCSGCCNNRNVQCRPTQVQLRPVQVRKIEIVRKKPIFKKATVTLEDHLACKCETVAAARPVT
notes: Two B chains by its name BB

Assay [1] has as its target B4. The experiment in a line: peptide binding assay.
For assay [2], the target named is transforming growth factor-β1 (TGF-β1) (UniProt P01137 279-390). The experiment in a line: equilibrium binding.
For a further assay, the target named is FGF-1 (UniProt P05230 16-155, limits assumed). Put plainly: binding assay, method not restated.
Another assay addresses TGF-α (UniProt P01135 40-89). Put plainly: binding assay, method not restated.
For the assay “EGF”, the target named is B3. Put plainly: binding assay, method not restated.
The target of assay [3] is B4. Put plainly: binding assay, method not restated.
Assay [4] has as its target B4. The experiment in a line: equilibrium binding.
The target of assay [5] is T1, FNIII12-V15 (HV), composite heparinII-binding and variably-spliced IIICS domains of fibronectin (human, UniProt P02751 1812-2288).
T1 construct: domain: FNIII12-V15; Recombinant domain made in E. coli; Some constructs carried GST at the C-terminus
The experiment in a line: plasmon resonance.

For assay [6], the target named is T2, FNIII8-11 (C), central cell-binding domain of fibronectin containing RGD (human, UniProt P02751 1357-1721).
T2 construct: domain: FNIII8-11; Recombinant domain
The experiment in a line: binding assay, method not restated.

The target in assay [7] is T3, 70 kDa amino terminus of FN (FN70) (UniProt P02751 32-608, limits assumed).
T3 construct: domain: 70 kDa amino terminus of FN (FN70); also called amino-terminal end of FN
The experiment in a line: binding assay, method not restated.

The target in another assay is T4, FNIII1-11 (human, UniProt P02751-1 610-1630).
T4 construct: domain: FNIII1-11; Recombinant domain
Put plainly: binding assay, method not restated.

The target in assay [8] is T5, intact fibronectin (UniProt P02751-8 32-2296, limits assumed).
T5 construct: also called FN; intact FN
The experiment in a line: equilibrium binding to FN adsorbed to a surface or coupled to agarose beads.

Assay [9] addresses T6, FNIII1-7 (UniProt P02751 610-1265, limits assumed).
T6 construct: domain: FNIII1-7
The experiment in a line: equilibrium and kinetic binding.

In assay [10] the target is T3, 70 kDa amino terminus of FN (FN70). The experiment in a line: equilibrium and kinetic binding.
For assay [11], the target named is T7, FNIII3-6 (human, UniProt P02751 810-1172, limits assumed).
T7 construct: domain: FNIII3-6; Recombinant domain
Put plainly: binding assay, method not restated.

In assay [12] the target is T8, FNIII12-15 (H), heparinII-binding domain of fibronectin (human, UniProt P02751-10 1631-1987).
T8 construct: domain: FNIII12-15; Recombinant domain; also called HepII domain
The experiment in a line: binding assay, method not restated.

The target of another assay is T9, FNIII1 (human, UniProt P02751 610-702, limits assumed).
T9 construct: domain: FNIII1; Recombinant domain; also called first type III repeat of FN
The experiment in a line: binding assay, method not restated.

The target of assay [13] is T10, FNIII12-14 (human, UniProt P02751 1812-2082).
T10 construct: domain: FNIII12-14; Recombinant domain
Put plainly: binding assay, method not restated.

Assay [14] deals with T5, intact fibronectin. Put plainly: radiolabeled GF binding to intact FN, non linear regression.
Assay [15] has as its target T11, FNIII1-2 (human, UniProt P02751 610-809, limits assumed).
T11 construct: domain: FNIII1-2; Recombinant domain
The experiment in a line: surface plasmon resonance. In general terms: In SPR one partner is held on a chip, and binding of the other changes the refractive index at the surface.

The target in assay [16] is T3, 70 kDa amino terminus of FN (FN70). Put plainly: equilibrium binding, confirmed by surface plasmon resonance.
The target of the next assay is T12, FNIII12-13 (UniProt P02751 1812-1992).
T12 construct: domain: FNIII12-13
Put plainly: equilibrium binding.

In assay [17] the target is T1, FNIII12-V15 (HV), composite …. Put plainly: equilibrium binding.
The target of assay [18] is T11, FNIII1-2. Put plainly: equilibrium binding.
Assay [19] deals with T7, FNIII3-6. The experiment in a line: equilibrium binding.
Assay [20] addresses T8, FNIII12-15 (H), heparinII-binding …. Put plainly: equilibrium binding.
Assay [21] addresses T6, FNIII1-7. The experiment in a line: equilibrium binding.
The target in assay [22] is T10, FNIII12-14. Put plainly: equilibrium binding.
Assay [23] has as its target T1, FNIII12-V15 (HV), composite …. Put plainly: plasmon surface resonance, kinetic binding.
Assay [24] has as its target T6, FNIII1-7. The experiment in a line: plasmon surface resonance, kinetic binding.
For assay [25], the target named is T10, FNIII12-14. Put plainly: binding assay, method not restated (plasmon resonance in the sentence before).

T6 sequence (P02751 610-1265 limits assumed): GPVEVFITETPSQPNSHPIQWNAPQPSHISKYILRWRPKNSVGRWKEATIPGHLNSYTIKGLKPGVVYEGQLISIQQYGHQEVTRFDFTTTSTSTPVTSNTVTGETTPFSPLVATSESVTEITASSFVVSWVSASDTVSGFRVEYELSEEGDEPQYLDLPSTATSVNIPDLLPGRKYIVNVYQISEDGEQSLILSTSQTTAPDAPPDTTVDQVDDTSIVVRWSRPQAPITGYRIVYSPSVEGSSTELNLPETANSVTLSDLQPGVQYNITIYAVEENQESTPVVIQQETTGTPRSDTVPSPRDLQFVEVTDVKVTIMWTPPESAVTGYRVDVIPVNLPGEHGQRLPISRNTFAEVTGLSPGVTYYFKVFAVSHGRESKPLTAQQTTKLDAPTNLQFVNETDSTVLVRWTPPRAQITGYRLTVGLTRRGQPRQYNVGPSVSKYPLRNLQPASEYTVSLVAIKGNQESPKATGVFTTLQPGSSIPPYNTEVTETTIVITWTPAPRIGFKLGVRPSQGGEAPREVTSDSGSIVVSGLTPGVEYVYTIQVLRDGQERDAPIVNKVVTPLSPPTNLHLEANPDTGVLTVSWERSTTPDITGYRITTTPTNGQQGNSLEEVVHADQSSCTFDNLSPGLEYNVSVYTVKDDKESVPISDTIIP
T10 sequence (P02751 other isoform, or with tags, fused parts or gaps limits assumed): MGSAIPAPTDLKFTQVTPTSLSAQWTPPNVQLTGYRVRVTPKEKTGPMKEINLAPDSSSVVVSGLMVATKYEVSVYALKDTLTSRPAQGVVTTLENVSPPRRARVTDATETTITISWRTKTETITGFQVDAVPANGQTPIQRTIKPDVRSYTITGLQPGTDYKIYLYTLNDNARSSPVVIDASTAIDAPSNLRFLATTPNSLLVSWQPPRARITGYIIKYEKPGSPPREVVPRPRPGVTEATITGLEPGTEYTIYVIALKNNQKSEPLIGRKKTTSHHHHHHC
T1 sequence (P02751 other isoform, or with tags, fused parts or gaps limits assumed): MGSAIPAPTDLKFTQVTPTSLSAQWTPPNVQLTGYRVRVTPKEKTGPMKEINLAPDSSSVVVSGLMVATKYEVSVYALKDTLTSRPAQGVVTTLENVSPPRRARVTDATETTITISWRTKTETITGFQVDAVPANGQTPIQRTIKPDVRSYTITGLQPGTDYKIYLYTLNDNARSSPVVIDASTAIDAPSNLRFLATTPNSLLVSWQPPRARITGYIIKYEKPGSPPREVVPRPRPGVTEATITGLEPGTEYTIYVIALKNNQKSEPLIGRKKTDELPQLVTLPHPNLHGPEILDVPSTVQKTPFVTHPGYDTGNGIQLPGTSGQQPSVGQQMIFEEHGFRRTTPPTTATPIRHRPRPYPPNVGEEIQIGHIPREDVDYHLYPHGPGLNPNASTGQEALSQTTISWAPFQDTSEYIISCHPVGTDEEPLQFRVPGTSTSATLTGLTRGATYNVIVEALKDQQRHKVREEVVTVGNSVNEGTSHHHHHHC
Sequence of FGF-1 (P05230 16-155 limits assumed): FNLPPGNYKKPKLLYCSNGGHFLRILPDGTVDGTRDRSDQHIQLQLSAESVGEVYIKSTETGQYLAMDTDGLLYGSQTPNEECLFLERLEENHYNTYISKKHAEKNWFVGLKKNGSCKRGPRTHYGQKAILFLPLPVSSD
T3 sequence (P02751 32-608 limits assumed): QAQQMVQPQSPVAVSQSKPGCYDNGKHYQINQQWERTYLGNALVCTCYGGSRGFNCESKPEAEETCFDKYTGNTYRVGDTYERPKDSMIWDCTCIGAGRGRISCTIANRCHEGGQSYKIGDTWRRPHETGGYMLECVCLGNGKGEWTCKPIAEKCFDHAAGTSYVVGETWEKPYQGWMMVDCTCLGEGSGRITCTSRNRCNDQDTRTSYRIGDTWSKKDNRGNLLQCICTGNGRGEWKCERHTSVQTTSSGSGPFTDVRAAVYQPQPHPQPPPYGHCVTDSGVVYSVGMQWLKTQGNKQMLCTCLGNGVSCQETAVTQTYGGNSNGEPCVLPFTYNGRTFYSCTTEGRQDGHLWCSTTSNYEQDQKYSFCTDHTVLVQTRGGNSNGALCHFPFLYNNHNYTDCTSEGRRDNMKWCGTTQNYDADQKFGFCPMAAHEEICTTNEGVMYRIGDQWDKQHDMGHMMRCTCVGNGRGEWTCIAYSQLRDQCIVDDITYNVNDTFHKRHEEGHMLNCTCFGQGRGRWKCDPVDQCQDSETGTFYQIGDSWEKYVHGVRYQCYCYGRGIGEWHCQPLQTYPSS
Sequence of transforming growth factor-β1 (TGF-β1) (P01137 279-390 limits assumed): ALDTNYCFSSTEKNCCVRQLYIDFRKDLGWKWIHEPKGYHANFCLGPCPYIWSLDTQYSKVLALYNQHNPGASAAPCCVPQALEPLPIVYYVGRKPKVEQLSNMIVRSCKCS
T2 sequence (P02751 other isoform, or with tags, fused parts or gaps limits assumed): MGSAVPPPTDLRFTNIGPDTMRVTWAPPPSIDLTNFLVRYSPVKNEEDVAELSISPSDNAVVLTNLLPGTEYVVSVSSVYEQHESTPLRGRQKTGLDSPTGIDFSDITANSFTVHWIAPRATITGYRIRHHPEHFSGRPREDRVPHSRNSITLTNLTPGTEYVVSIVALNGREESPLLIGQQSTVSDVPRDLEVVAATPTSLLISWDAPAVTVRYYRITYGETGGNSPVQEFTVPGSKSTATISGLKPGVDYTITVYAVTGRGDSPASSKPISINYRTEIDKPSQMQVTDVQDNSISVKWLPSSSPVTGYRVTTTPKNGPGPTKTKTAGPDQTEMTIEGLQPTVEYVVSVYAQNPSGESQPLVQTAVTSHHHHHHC
Sequence of TGF-α (P01135 40-89 limits assumed): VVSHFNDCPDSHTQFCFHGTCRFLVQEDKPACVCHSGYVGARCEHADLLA
T8 sequence (P02751 other isoform, or with tags, fused parts or gaps limits assumed): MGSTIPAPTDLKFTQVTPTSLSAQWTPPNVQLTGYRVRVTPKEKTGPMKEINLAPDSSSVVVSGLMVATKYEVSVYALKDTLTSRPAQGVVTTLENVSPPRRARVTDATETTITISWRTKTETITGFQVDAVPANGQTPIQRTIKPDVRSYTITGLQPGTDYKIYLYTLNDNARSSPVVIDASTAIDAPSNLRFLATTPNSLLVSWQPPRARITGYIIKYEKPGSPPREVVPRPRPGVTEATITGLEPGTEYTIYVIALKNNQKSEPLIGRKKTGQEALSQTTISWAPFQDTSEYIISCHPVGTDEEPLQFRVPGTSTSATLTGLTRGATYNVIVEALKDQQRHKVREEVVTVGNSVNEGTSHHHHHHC
T11 sequence (P02751 other isoform, or with tags, fused parts or gaps limits assumed): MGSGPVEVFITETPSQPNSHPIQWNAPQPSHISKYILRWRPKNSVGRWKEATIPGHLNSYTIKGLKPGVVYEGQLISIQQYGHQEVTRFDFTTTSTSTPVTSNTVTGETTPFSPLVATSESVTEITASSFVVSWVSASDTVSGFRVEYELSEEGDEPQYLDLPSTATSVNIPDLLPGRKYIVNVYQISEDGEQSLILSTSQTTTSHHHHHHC
T7 sequence (P02751 other isoform, or with tags, fused parts or gaps limits assumed): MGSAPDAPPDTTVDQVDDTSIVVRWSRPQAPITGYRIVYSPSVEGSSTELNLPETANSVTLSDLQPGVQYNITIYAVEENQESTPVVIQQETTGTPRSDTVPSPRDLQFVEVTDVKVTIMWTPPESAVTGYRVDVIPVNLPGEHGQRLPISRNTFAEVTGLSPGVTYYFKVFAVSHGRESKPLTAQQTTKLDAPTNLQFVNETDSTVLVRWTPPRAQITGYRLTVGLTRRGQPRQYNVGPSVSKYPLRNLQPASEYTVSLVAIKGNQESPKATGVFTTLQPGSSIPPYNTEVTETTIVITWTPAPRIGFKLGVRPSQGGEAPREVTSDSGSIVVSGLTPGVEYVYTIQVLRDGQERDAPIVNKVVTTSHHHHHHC
T12 sequence (P02751 1812-1992 limits assumed): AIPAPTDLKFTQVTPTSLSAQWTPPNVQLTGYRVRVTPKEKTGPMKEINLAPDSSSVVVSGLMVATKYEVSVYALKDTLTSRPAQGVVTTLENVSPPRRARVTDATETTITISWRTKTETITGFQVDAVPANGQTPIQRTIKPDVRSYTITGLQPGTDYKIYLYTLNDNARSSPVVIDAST
T4 sequence (P02751 other isoform, or with tags, fused parts or gaps limits assumed): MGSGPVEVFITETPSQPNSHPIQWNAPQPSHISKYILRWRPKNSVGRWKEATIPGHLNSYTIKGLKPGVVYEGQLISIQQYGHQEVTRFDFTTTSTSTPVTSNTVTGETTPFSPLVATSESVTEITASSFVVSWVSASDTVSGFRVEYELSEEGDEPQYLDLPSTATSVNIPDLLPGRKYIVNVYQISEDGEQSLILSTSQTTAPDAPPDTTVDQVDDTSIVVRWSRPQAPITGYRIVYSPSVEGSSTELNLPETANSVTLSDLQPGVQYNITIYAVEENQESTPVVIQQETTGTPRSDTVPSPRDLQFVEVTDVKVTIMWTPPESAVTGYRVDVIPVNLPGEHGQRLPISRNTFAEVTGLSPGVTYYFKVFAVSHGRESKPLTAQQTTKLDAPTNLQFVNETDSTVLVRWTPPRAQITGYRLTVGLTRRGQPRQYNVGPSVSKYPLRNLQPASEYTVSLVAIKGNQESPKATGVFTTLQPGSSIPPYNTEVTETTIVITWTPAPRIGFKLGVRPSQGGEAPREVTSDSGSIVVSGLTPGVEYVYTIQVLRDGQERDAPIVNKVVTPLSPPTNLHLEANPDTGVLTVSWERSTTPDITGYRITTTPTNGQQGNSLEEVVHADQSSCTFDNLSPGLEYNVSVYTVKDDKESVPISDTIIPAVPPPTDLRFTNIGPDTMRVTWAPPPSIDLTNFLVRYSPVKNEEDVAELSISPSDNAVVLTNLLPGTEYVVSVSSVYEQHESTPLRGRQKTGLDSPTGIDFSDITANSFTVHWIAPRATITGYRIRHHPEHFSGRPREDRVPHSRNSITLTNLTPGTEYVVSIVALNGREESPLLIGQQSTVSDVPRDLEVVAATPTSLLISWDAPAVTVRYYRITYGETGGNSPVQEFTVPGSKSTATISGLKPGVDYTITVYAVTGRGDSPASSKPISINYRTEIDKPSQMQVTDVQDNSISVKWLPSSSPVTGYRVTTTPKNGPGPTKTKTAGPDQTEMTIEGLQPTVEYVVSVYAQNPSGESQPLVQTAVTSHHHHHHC

In the case of YILRWRPKNSVGRW [FN641-654 (YILRWRPKNSVGRW)], the binding result in assay [1] is “no binding”.

ILRWRPKNSVGRWK yielded a dissociation constant (Kd) in assay [2] of 400 nM.

With NGQTPIQRTIKPDVRSYTITGLQPGT (Synthetic peptide) [peptide 3 (NGQTPIQRTIKPDVRSYTITGLQPGT)], in [2], the affinity, expressed as Kd, was 140 nM. Besides, the binding result with FGF-1, with TGF-α and in the assay with EGF was “no binding” in each case.

In assay [2], QPSVGQQMIFEEHGFRRTTPPTTAT (Synthetic peptide) [peptide 4 (QPSVGQQMIFEEHGFRRTTPPTTAT)] returned a Kd of 100 nM. In addition, the binding result with FGF-1, with TGF-α and with EGF was “no binding” each time.

For the molecule QLISIQQYGHQEVTRFDFTTTSTST (Synthetic peptide) [peptide 2 (QLISIQQYGHQEVTRFDFTTTSTST)], the Kd in [2] amounted to 270 nM; in assay [3] it was 110 nM. Besides, the binding result with FGF-1, in the assay with TGF-α and in the assay with EGF was “no binding” in each case.

For the molecule KNSVGRWKEATIPGHLNSYT [FN648-667 (KNSVGRWKEATIPGHLNSYT)], in [1], the binding result is on record as “no binding”.

B1: peptide 1 (QPSHISKYILRWRPKNSVGRWKEAT) (peptide)
peptide: QPSHISKYILRWRPKNSVGRWKEAT
notes: Synthetic peptide; also called FN634-658
For B1, the Kd was 250 nM in assay [4] and 130 nM in [2]. Moreover, the binding result with FGF-1, with TGF-α and in the assay with EGF was “no binding” each time.

Regarding QPSHISKY [FN634-641 (QPSHISKY)], in assay [1], the binding result is listed as “no binding”.

As to WNAPQPSHISKYILRWRPK [FN630-648 (WNAPQPSHISKYILRWRPK)], the Kd in assay [1] is 340 nM.

B2: vascular endothelial growth factor A (VEGF-A) (ligand, UniProt P15692-4 27-191, looked up)
chain: APMAEGGGQNHHEVVKFMDVYQRSYCHPIETLVDIFQEYPDEIEYIFKPSCVPLMRCGGCCNDEGLECVPTEESNITMQIMRIKPHQGQHIGEMSFLQHNKCECRPKKDRARQENPCGPCSERRKHLFVQDPQTCKCSCKNTDSRCKARQLELNERTCRCDKPRR
In [5], B2 yielded a Kd of 0.6 nM. Also, the binding result (in assay [6]; in assay [7]; with FNIII1-11) was “no binding” each time.

On to B3, for which the binding result (in assay [5]; in the assay with intact fibronectin [8]; in the assay with FNIII1-7 [9]; in assay [10]; with FNIII3-6 [11]; in [6]) was “no binding” each time. The binding result (in assay [12]; in the assay with FNIII1; with FNIII12-14 [13]) was “no binding” throughout.

For the molecule B4, the Kd with intact fibronectin [14] came to 49 nM; in the assay with FNIII1-2 [15], 9.1 nM; in the assay with FNIII12-13 it was 75 nM; in assay [17], 21 nM; in the assay with FNIII1-2 [18], 37 nM; in assay [20], 6.8 nM. Also, the Kd with FNIII1-7 [21] came out at 75 nM; with FNIII12-14 [22], 35 nM; in assay [23] it was 17 nM; with FNIII1-7 [24], 100 nM; with FNIII12-14 [25], 55 nM. Besides, the binding result (in [16]; in the assay with FNIII3-6 [19]; in assay [6]) was “no binding” in each case.

In the case of QPSHISKYILRWRPK [FN634-648 (QPSHISKYILRWRPK)], the Kd in assay [1] came out at 450 nM; in assay [2] it was 440 nM.

As usually defined, the Kd is the constant that tells how readily two partners part at equilibrium. Read a high Kd as lower affinity.
